Measurements as given in US20220347304A1 (CYTOKI PHARMA, published 2022).
Where a chain is given by its changes, count along the chain named.

B1: Derivative 1 (ligand)
chain: GPGCPISSHCRLDKSNFQQPYITNRTFMLAKEASLADNNTDVRLIGEKLFHGVSMSERCYLMKQVLNFTLEEVLFPQSDRFQPYMQEVVPFLARLSNRLSTCHIEGDDLHIQRNVQKLKDTVKKLGESGEIKAIGELDLLFMSLRNACI
modifications: C18 diacid attached by linker γGlu-OEG-OEG-C2DA-Ac to Cys at site 1C (Cys substituted at position 1 of hIL-22, after the G-P-G N-terminal peptide)
B2: Derivative 3 (ligand)
chain: B1 chain
modifications: C16 diacid attached by linker γGlu-OEG-OEG-C2DA-Ac to Cys at site 1C (Cys substituted at position 1 of hIL-22)
B3: Derivative 4 (ligand)
chain: GPGSGSGSCGSGSGSAPISSHCRLDKSNFQQPYITNRTFMLAKEASLADNNTDVRLIGEKLFHGVSMSERCYLMKQVLNFTLEEVLFPQSDRFQPYMQEVVPFLARLSNRLSTCHIEGDDLHIQRNVQKLKDTVKKLGESGEIKAIGELDLLFMSLRNACI
modifications: C16 diacid attached by linker γGlu-OEG-OEG-C2DA-Ac to Cys at site -7C (in the 15-mer N-terminal peptide)
B4: native mature human IL-22 (hIL-22) (ligand)
chain: APISSHCRLDKSNFQQPYITNRTFMLAKEASLADNNTDVRLIGEKLFHGVSMSERCYLMKQVLNFTLEEVLFPQSDRFQPYMQEVVPFLARLSNRLSTCHIEGDDLHIQRNVQKLKDTVKKLGESGEIKAIGELDLLFMSLRNACI
B5: Derivative 9 (ligand)
chain: B4 chain with A33C, N35Q, N64Q
modifications: C18 diacid attached by linker γGlu-OEG-OEG-C2DA-Ac to Cys at site 33C (Cys substituted at position 33 of hIL-22)
B6: Comparator 1 (ligand)
chain: B4 chain with A1G
B7: Derivative 10 (ligand)
chain: B1 chain with N38Q, N67Q
modifications: C16 diacid attached by linker γGlu-OEG-OEG-C2DA-Ac to Cys at site 1C (Cys substituted at position 1 of hIL-22)
B8: Derivative 6 (ligand)
chain: B1 chain with N38Q, N67Q
modifications: C18 diacid attached by linker γGlu-OEG-OEG-C2DA-Ac to Cys at site 1C (Cys substituted at position 1 of hIL-22)
B9: Comparator 5 (ligand)
chain: B1 chain with N38Q, N67Q
B10: Derivative 8 (ligand)
chain: GAPISSCCRLDKSNFQQPYITNRTFMLAKEASLADQNTDVRLIGEKLFHGVSMSERCYLMKQVLQFTLEEVLFPQSDRFQPYMQEVVPFLARLSNRLSTCHIEGDDLHIQRNVQKLKDTVKKLGESGEIKAIGELDLLFMSLRNACI
modifications: C18 diacid attached by linker γGlu-OEG-OEG-C2DA-Ac to Cys at site 6C (Cys substituted at position 6 of hIL-22)
B11: Derivative 2 (ligand)
chain: B3 chain
modifications: C18 diacid attached by linker γGlu-OEG-OEG-C2DA-Ac to Cys at site -7C (in the 15-mer N-terminal peptide G-P-G-S-G-S-G-S-C-G-S-G-S-G-S, numbered negatively from hIL-22 residue 1)
B12: Comparator 4 (ligand)
chain: B1 chain

What follows are binders tested against T1, human IL-22 receptor (human IL-22Ra and human IL-10Rb) on cells (human, UniProt Q8N6P7 16-574; Q08334 20-325) (assay: cell-based or functional assay).
T1 sequence (looked up) 1: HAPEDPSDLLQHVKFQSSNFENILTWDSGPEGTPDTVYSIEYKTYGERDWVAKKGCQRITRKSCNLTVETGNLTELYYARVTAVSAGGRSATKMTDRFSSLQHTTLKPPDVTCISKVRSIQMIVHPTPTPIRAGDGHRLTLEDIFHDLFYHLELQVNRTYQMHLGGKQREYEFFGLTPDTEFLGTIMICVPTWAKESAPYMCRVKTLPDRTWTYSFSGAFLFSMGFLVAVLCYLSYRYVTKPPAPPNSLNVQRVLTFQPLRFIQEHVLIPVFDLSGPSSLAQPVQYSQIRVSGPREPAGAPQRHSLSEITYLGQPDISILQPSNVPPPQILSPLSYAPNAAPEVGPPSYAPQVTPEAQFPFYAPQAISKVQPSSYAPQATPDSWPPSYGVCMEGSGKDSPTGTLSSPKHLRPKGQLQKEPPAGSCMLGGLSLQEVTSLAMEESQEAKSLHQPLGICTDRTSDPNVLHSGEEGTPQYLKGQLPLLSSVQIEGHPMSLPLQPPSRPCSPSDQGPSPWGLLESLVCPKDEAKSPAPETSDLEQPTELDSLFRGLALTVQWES
T1 sequence (looked up) 2: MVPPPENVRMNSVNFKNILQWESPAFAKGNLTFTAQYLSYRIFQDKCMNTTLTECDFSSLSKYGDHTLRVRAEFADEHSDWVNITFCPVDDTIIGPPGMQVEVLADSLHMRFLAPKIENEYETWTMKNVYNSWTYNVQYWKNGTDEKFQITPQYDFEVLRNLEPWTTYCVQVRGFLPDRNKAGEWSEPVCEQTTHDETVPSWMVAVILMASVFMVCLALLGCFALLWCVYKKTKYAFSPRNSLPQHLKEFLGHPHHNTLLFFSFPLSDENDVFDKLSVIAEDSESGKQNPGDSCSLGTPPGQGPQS

Binder | potency in BHK cell reporter gene assay, fold reduction against hIL-22 [fold] | potency in HepG2 pSTAT3 assay, fold reduction against hIL-22 [fold]
B1 | 7 | 2.5
B2 | 4 | 

Biological target: T1, human IL-22 receptor (human IL-22Ra and …)
Test: cell-based or functional assay
Remark: another data set of the same source

Binder | EC50, luciferase reporter gene (STAT3-induced promoter) in BHK cells expressing human IL-22Ra and IL-10Rb [nM]
B3 | 0.18
B4 | 0.07
B5 | 0.28
B6 | 0.06
B7 | 0.37
B1 | 0.48
B2 | 0.3
B8 | 0.61
B9 | 0.19
B10 | 1.24

Biological target: T1, human IL-22 receptor (human IL-22Ra and …)
Test: cell-based or functional assay
Remark: another data set of the same source

Binder | EC50, pSTAT3 (AlphaScreen SureFire STAT3 p-Tyr705) in HepG2 cells [nM]
B11 | 6.98
B4 | 3.88
B6 | 4.73
B1 | 10.1
B12 | 12.1
B8 | 14.9
